From patent US20240360176A1 (MARSHALL UNIVERSITY RESEARCH, published 2024) come the findings set out here.

This experiment addresses Src kinase (human, endogenous in the HCC cell lines HEP3B and SNU475) (human, UniProt P12931 2-536, phosphorylation read out with a polyclonal antibody to Tyr419 of Src kinase). Kind of experiment: cell-based or functional assay.

B1: pNaKtide (peptide)
peptide: not shown
Take B1: the “cell proliferation (MTT assay), IC50, Hep3 cells” value was 62.5 µM and the “cell proliferation (MTT assay), IC50, SNU475 cells” value was found to be 6 µM.
